Columns and labels:
Test in all cases: peptide SPOT array, c-Myc-tagged receptor at 1 uM or 100 nM, anti-c-Myc-Cy3
[1] = molecular target: Bcl-2, P10415
[2] = molecular target: T1, Bcl-w, Q92843
T1 chain: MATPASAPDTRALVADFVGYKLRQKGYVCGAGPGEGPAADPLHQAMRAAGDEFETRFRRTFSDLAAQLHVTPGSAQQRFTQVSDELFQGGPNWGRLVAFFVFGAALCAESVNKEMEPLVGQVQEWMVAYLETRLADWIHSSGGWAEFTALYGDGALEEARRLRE

[3] = molecular target: Bcl-xL, Q07817
[4] = molecular target: T2, Bfl-1, Q16548
T2 chain: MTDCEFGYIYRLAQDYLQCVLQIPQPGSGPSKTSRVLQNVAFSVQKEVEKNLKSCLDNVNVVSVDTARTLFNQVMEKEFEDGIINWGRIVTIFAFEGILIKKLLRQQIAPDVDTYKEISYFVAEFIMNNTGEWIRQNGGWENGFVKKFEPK

[5] = molecular target: T3, Mcl-1, Q07820
T3 chain: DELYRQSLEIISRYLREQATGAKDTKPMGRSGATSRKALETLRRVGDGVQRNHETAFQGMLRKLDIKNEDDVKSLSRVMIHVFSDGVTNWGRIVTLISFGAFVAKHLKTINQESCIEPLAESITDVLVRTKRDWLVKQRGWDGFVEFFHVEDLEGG

Chain of Bcl-xL, Q07817 (Q07817 1-209): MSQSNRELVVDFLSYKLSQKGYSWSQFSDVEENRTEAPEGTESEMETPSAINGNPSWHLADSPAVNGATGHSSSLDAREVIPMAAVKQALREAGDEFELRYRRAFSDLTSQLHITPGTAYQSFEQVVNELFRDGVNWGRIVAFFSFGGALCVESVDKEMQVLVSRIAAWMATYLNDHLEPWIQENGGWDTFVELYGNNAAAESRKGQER
Chain of Bcl-2, P10415 (P10415 1-217): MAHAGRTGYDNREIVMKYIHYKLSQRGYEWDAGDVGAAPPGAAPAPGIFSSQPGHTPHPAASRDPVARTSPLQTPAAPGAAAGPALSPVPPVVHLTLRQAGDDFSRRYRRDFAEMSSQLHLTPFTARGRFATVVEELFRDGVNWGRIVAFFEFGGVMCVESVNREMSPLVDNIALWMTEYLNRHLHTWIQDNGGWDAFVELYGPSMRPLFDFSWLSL

DIDEGLYSRQLYVLGHEAMKRLQTSS [UBA1]
SPOT signal as a fraction of Bim BH3's signal on the same receptor and array [1]: 0.02 | SPOT signal as a fraction of Bim BH3's signal on the same receptor and array [2]: 0.03 | SPOT signal as a fraction of Bim BH3's signal on the same receptor and array [3]: 0.05 | SPOT signal as a fraction of Bim BH3's signal on the same receptor and array [4]: 0.09 | SPOT signal as a fraction of Bim BH3's signal on the same receptor and array [5]: 0.04

EQKLKQHVENLNQVAEKLEEKHSQIT [CCDC68]
SPOT signal as a fraction of Bim BH3's signal on the same receptor and array [1]: 0.01 | SPOT signal as a fraction of Bim BH3's signal on the same receptor and array [2]: 0.02 | SPOT signal as a fraction of Bim BH3's signal on the same receptor and array [3]: 0.03 | SPOT signal as a fraction of Bim BH3's signal on the same receptor and array [4]: 0.01 | SPOT signal as a fraction of Bim BH3's signal on the same receptor and array [5]: 0.02

ASGNKEMIEALKQYAMDYSNKALEKG [IFIT3]
SPOT signal as a fraction of Bim BH3's signal on the same receptor and array [1]: 0.01 | SPOT signal as a fraction of Bim BH3's signal on the same receptor and array [2]: 0.04 | SPOT signal as a fraction of Bim BH3's signal on the same receptor and array [3]: 0.06 | SPOT signal as a fraction of Bim BH3's signal on the same receptor and array [4]: 0.04 | SPOT signal as a fraction of Bim BH3's signal on the same receptor and array [5]: 0.03

RTNNYQLSDELRKNGVELTSLRQKVA [GRIPAP1]
SPOT signal as a fraction of Bim BH3's signal on the same receptor and array [1]: 0.14 | SPOT signal as a fraction of Bim BH3's signal on the same receptor and array [2]: 0.51 | SPOT signal as a fraction of Bim BH3's signal on the same receptor and array [3]: 0.39 | SPOT signal as a fraction of Bim BH3's signal on the same receptor and array [4]: 0.48 | SPOT signal as a fraction of Bim BH3's signal on the same receptor and array [5]: 0.19

GMTSEQVAQVLRNCGNSVRMLVARDP [INADL]
SPOT signal as a fraction of Bim BH3's signal on the same receptor and array [1]: 0.04 | SPOT signal as a fraction of Bim BH3's signal on the same receptor and array [2]: 0.06 | SPOT signal as a fraction of Bim BH3's signal on the same receptor and array [3]: 0.18 | SPOT signal as a fraction of Bim BH3's signal on the same receptor and array [4]: 0.15 | SPOT signal as a fraction of Bim BH3's signal on the same receptor and array [5]: 0.07

FDHMVPLVEEINRLADELNPLNASQE [C7orf26]
SPOT signal as a fraction of Bim BH3's signal on the same receptor and array [1]: 0.01 | SPOT signal as a fraction of Bim BH3's signal on the same receptor and array [2]: 0.02 | SPOT signal as a fraction of Bim BH3's signal on the same receptor and array [3]: 0.02 | SPOT signal as a fraction of Bim BH3's signal on the same receptor and array [4]: 0.01 | SPOT signal as a fraction of Bim BH3's signal on the same receptor and array [5]: 0.02

EKNLPKMAEALAHGADVNWANSEENK [ACAP2]
SPOT signal as a fraction of Bim BH3's signal on the same receptor and array [1]: 0.01 | SPOT signal as a fraction of Bim BH3's signal on the same receptor and array [2]: 0.01 | SPOT signal as a fraction of Bim BH3's signal on the same receptor and array [3]: 0.02 | SPOT signal as a fraction of Bim BH3's signal on the same receptor and array [4]: 0.01 | SPOT signal as a fraction of Bim BH3's signal on the same receptor and array [5]: 0.02

PRPLSILGNLLLLCSQDMLTSLTKLS [CYP2F1]
SPOT signal as a fraction of Bim BH3's signal on the same receptor and array [1]: 0.03 | SPOT signal as a fraction of Bim BH3's signal on the same receptor and array [2]: 0.11 | SPOT signal as a fraction of Bim BH3's signal on the same receptor and array [3]: 0.2 | SPOT signal as a fraction of Bim BH3's signal on the same receptor and array [4]: 0.33 | SPOT signal as a fraction of Bim BH3's signal on the same receptor and array [5]: 0.08

KCRHEEVVQVLRNAGEEVTLTVSFLK [SNTG1]
SPOT signal as a fraction of Bim BH3's signal on the same receptor and array [1]: 0.01 | SPOT signal as a fraction of Bim BH3's signal on the same receptor and array [2]: 0.01 | SPOT signal as a fraction of Bim BH3's signal on the same receptor and array [3]: 0.02 | SPOT signal as a fraction of Bim BH3's signal on the same receptor and array [4]: 0.02 | SPOT signal as a fraction of Bim BH3's signal on the same receptor and array [5]: 0.02

LGHTGLACLFLKRGADLGARDSEGRD [ACAP1]
SPOT signal as a fraction of Bim BH3's signal on the same receptor and array [1]: 0.03 | SPOT signal as a fraction of Bim BH3's signal on the same receptor and array [2]: 0.1 | SPOT signal as a fraction of Bim BH3's signal on the same receptor and array [3]: 0.14 | SPOT signal as a fraction of Bim BH3's signal on the same receptor and array [4]: 0.21 | SPOT signal as a fraction of Bim BH3's signal on the same receptor and array [5]: 0.045

DSLAKFAGRKLKDCGEDLLVEISEVL [PCM1]
SPOT signal as a fraction of Bim BH3's signal on the same receptor and array [1]: 0.01 | SPOT signal as a fraction of Bim BH3's signal on the same receptor and array [2]: 0.02 | SPOT signal as a fraction of Bim BH3's signal on the same receptor and array [3]: 0.02 | SPOT signal as a fraction of Bim BH3's signal on the same receptor and array [4]: 0.01 | SPOT signal as a fraction of Bim BH3's signal on the same receptor and array [5]: 0.02

YNLKSPAVKRLMKEAAELKDPTDHYH [UBE2J1]
SPOT signal as a fraction of Bim BH3's signal on the same receptor and array [1]: 0.03 | SPOT signal as a fraction of Bim BH3's signal on the same receptor and array [2]: 0.08 | SPOT signal as a fraction of Bim BH3's signal on the same receptor and array [3]: 0.19 | SPOT signal as a fraction of Bim BH3's signal on the same receptor and array [4]: 0.13 | SPOT signal as a fraction of Bim BH3's signal on the same receptor and array [5]: 0.05

CQGDTVISECLQRFADSLQEVVNYHM [ACAP3]
SPOT signal as a fraction of Bim BH3's signal on the same receptor and array [1]: 0.01 | SPOT signal as a fraction of Bim BH3's signal on the same receptor and array [2]: 0.02 | SPOT signal as a fraction of Bim BH3's signal on the same receptor and array [3]: 0.02 | SPOT signal as a fraction of Bim BH3's signal on the same receptor and array [4]: 0.11 | SPOT signal as a fraction of Bim BH3's signal on the same receptor and array [5]: 0.02

TCLNRGFSRLLDNMAEFFRPTEQDLQ [PEX3]
SPOT signal as a fraction of Bim BH3's signal on the same receptor and array [1]: 0.02 | SPOT signal as a fraction of Bim BH3's signal on the same receptor and array [2]: 0.03 | SPOT signal as a fraction of Bim BH3's signal on the same receptor and array [3]: 0.06 | SPOT signal as a fraction of Bim BH3's signal on the same receptor and array [4]: 0.04 | SPOT signal as a fraction of Bim BH3's signal on the same receptor and array [5]: 0.04

FQQTISCPEGLRLVGSEVGDRTLPGW [IRF3]
SPOT signal as a fraction of Bim BH3's signal on the same receptor and array [1]: 0.01 | SPOT signal as a fraction of Bim BH3's signal on the same receptor and array [2]: 0.02 | SPOT signal as a fraction of Bim BH3's signal on the same receptor and array [3]: 0.03 | SPOT signal as a fraction of Bim BH3's signal on the same receptor and array [4]: 0.02 | SPOT signal as a fraction of Bim BH3's signal on the same receptor and array [5]: 0.02

RAIPIKQGILLKRSGKSLNKEWKKKY [AGAP3]
SPOT signal as a fraction of Bim BH3's signal on the same receptor and array [1]: 0.19 | SPOT signal as a fraction of Bim BH3's signal on the same receptor and array [2]: 0.64 | SPOT signal as a fraction of Bim BH3's signal on the same receptor and array [3]: 1.42 | SPOT signal as a fraction of Bim BH3's signal on the same receptor and array [4]: 0.52 | SPOT signal as a fraction of Bim BH3's signal on the same receptor and array [5]: 0.35

TSQTEGLSRLLRQHAEDLNSGPLSKL [FES]
SPOT signal as a fraction of Bim BH3's signal on the same receptor and array [1]: 0.01 | SPOT signal as a fraction of Bim BH3's signal on the same receptor and array [2]: 0.09 | SPOT signal as a fraction of Bim BH3's signal on the same receptor and array [3]: 0.05 | SPOT signal as a fraction of Bim BH3's signal on the same receptor and array [4]: 0.05 | SPOT signal as a fraction of Bim BH3's signal on the same receptor and array [5]: 0.02

PVGYLVESGRLSVMGCDVLKAVSDYF [MFI2]
SPOT signal as a fraction of Bim BH3's signal on the same receptor and array [1]: 0.01 | SPOT signal as a fraction of Bim BH3's signal on the same receptor and array [2]: 0.02 | SPOT signal as a fraction of Bim BH3's signal on the same receptor and array [3]: 0.04 | SPOT signal as a fraction of Bim BH3's signal on the same receptor and array [4]: 0.04 | SPOT signal as a fraction of Bim BH3's signal on the same receptor and array [5]: 0.03

From paper PMC4072508, “Genome-Wide Prediction and Validation of Peptides That Bind Human Prosurvival Bcl-2 Proteins” (PLoS Computational Biology, 2014)
